Patent US20120165204A1

Tests used:
[1] = target: CRIB domain of PAK1 (residues 65-150, extended CRIB domain) with C-terminal 6x Histidine tag (UniProt Q13153); assay: ITC at 25 °C, experiment 2; parameters: unit not given here
[2] = target: CRIB domain of PAK1 (residues 65-150, extended CRIB domain) with C-terminal 6x Histidine tag (UniProt Q13153); assay: ITC at 25 °C, experiment 1; parameters: unit not given here
[3] = target: CRIB domain of PAK1 (residues 65-150, extended CRIB domain) with C-terminal 6x Histidine tag (UniProt Q13153); assay: ITC at 25 °C, experiment 2, stoichiometry of one-site model
[4] = target: CRIB domain of PAK1 (residues 65-150, extended CRIB domain) with C-terminal 6x Histidine tag (UniProt Q13153); assay: ITC at 25 °C, PA-Rac1 mutant injected into PAK1 CRIB (10 µM), experiment 2; column head prints 'mM', paragraph 152 gives 220-280 nM
[5] = target: CRIB domain of PAK1 (residues 65-150, extended CRIB domain) with C-terminal 6x Histidine tag (UniProt Q13153); assay: ITC at 25 °C, experiment 1, stoichiometry of one-site model
[6] = target: CRIB domain of PAK1 (residues 65-150, extended CRIB domain) with C-terminal 6x Histidine tag (UniProt Q13153); assay: ITC at 25 °C, PA-Rac1 mutant injected into PAK1 CRIB (10 µM), experiment 1; column head prints 'mM', paragraph 152 and the legend of FIG. 3 give µM / nM
[7] = target: CRIB domain of PAK1 (residues 65-150, extended CRIB domain) with C-terminal 6x Histidine tag (UniProt Q13153); assay: ITC at 25 °C, PA-Rac1 mutant injected into PAK1 CRIB (10 µM), experiment 2; column head prints 'mM', paragraph 152 gives µM
[8] = target: CRIB domain of PAK1 (residues 65-150, extended CRIB domain) with C-terminal 6x Histidine tag (UniProt Q13153); assay: ITC at 25 °C, PA-Rac1 mutant injected into PAK1 CRIB (10 µM), experiment 1; column head prints 'mM', paragraph 152 and the legend of FIG. 3 give µM
[9] = target: CRIB domain of PAK1 (residues 65-150, extended CRIB domain) with C-terminal 6x Histidine tag (UniProt Q13153); assay: ITC

ΔH [1] | ΔS [1] | ΔS [2] | N [3] | Kd [4] | N [5] | Kd [6] | Kd [7] | Kd [8] | ΔH [2] | fold weaker affinity than the lit state mimetic I539E [9] | Substance
-18000 | -31 | -30 | 0.95 | 280 nM | 0.95 | 220 nM | – | – | – | – | PA-Rac1 I539E (lit state mutant) with N-terminal six Histidine tag (from UniProt P63000 4-192)
-5600 | 6.6 | 2.6 | 0.64 | – | 1 | – | 3100 nM | 2300 nM | -7000 | 10 fold | PA-Rac1 C450A (dark state mutant) with N-terminal six Histidine tag (from UniProt P63000 4-192)
